US20040063188A1

Target: recombinant HPV-16 L1 VLPs (baculovirus-derived, from Sf-9S insect cells) (human papillomavirus type 16) (UniProt P03101)
Experiment: ELISA; 1000 ng VLPs mixed with infected-cell supernatants; reference is the same pair with VLPs in buffer or in sucrose (FIG. 11)

Sequence of UniProt P03101 (P03101 whole entry): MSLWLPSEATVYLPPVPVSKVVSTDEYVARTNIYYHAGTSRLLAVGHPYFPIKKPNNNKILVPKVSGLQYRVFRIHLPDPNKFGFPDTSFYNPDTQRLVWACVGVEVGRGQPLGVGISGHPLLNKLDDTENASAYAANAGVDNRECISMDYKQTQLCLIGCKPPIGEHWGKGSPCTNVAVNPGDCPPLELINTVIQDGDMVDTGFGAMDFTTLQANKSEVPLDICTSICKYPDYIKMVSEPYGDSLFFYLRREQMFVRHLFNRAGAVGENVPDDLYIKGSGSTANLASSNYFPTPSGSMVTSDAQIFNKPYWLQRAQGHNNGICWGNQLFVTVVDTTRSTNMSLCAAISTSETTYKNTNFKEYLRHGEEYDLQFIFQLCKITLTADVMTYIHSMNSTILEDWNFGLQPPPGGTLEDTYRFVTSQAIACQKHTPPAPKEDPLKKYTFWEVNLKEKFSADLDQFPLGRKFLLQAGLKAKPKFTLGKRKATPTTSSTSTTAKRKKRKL

Q: H16.V5 murine monoclonal antibody was tested. Which fold decrease in binding activity did it give?
A: 5 fold
